Measured values from paper PMC6547012, “TCP Transcription Factors Associate with PHYTOCHROME INTERACTING FACTOR 4 and CRYPTOCHROME 1 to Regulate Thermomorphogenesis in Arabidopsis thaliana” (iScience, 2019).

Biological target: T1, FLAG-CRY1 (Arabidopsis thaliana, UniProt Q43125 1-681)
T1 construct: CRYPTOCHROME 1 (CRY1), Arabidopsis thaliana; source: E. coli-purified
Test: pull-down; in vitro pull-down; MBP or MBP-TCP17 incubated with FLAG-CRY1 for 2 h at 4°C; immunoblot with anti-MBP or anti-FLAG
Conditions: both partners purified

T1 sequence (Q43125 whole entry): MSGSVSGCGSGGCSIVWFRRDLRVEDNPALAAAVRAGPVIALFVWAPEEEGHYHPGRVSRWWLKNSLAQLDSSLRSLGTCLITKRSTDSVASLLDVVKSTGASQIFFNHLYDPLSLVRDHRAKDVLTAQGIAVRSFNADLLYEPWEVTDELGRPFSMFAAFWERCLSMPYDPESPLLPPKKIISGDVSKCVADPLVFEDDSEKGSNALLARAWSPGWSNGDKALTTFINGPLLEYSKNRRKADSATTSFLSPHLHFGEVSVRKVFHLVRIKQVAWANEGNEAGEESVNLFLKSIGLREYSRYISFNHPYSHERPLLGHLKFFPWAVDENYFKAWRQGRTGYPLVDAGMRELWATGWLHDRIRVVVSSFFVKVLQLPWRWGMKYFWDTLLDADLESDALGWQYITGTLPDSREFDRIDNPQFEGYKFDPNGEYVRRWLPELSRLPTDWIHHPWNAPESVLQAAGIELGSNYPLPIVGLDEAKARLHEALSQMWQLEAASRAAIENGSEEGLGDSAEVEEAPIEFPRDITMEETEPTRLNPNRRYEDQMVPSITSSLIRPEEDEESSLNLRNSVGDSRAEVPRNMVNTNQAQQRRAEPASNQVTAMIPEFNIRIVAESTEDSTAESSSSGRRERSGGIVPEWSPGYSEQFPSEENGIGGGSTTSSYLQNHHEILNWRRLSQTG

B1: MBP-TCP17 (natural protein, Arabidopsis thaliana, UniProt Q9LEZ9 1-242, looked up)
chain: MGIKKEDQKSSLSLLTQRWNNPRIVRVSRAFGGKDRHSKVCTVRGLRDRRIRLSVMTAIQVYDLQERLGLSQPSKVIDWLLEVAKNDVDLLPPLQFPPGFHQLNPNLTGLGESFPGVFDLGRTQREALDLEKRKWVNLDHVFDHIDHHNHFSNSIQSNKLYFPTITSSSSSYHYNLGHLQQSLLDQSGNVTVAFSNNYNNNNLNPPAAETMSSLFPTRYPSFLGGGQLQLFSSTSSQPDHIE
notes: TCP17, Arabidopsis thaliana; also called MBP-tagged TCP17; source: E. coli expressed and purified
  binding result: binds
